The target of assay [1] is T1, his-tagged ROR2 extracellular domain (ROR2-ECD, G&P Biosciences, cat. no. FCL0192) (human, UniProt Q01974 34-403).
T1 construct: Bought protein; also called human ROR2-ECD; recombinant human ROR2-ECD; not shown: his tag
The experiment in a line: BLI (Octet), antibody on anti-human IgG Fc sensor, ROR2-ECD 1.56-100 nM as analyte.

For assay [2], the target named is T2, cynomolgus monkey (Macaca fascicularis) ROR2, full length, on CHO cells (cynomolgus monkey (Macaca fascicularis), UniProt Q01974 34-943 (human entry)).
T2 construct: also called ROR2mf; CHO-mfROR2
T2 chain: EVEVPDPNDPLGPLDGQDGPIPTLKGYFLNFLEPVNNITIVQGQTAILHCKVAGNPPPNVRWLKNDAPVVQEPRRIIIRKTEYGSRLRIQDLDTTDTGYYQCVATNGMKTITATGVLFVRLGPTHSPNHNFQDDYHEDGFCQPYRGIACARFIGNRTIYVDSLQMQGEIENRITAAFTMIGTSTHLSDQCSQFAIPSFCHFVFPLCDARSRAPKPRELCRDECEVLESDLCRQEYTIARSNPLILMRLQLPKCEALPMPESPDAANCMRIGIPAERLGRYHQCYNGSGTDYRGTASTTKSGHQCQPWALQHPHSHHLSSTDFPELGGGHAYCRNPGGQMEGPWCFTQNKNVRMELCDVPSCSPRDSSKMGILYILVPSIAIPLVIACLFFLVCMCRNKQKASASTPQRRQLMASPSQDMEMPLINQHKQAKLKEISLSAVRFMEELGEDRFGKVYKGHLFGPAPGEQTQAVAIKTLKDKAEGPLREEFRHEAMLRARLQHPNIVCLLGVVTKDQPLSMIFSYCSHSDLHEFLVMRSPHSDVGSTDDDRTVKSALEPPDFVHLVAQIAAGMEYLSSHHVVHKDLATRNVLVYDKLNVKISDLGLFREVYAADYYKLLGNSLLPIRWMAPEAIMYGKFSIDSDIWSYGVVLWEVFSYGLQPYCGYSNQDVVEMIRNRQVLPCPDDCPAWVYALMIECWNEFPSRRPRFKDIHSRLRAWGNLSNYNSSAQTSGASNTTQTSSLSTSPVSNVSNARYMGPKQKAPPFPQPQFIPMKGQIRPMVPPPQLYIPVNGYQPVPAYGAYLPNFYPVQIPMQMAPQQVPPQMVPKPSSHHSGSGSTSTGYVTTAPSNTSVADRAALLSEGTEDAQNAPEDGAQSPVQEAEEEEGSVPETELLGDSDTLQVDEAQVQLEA
The experiment in a line: flow cytometry on CHO cells expressing cynomolgus monkey ROR2. On the procedure: Next, binding of bispecific CD3×ROR2 antibodies and monospecific ROR2 antibodies to CHO cells expressing human or cynomolgus monkey ROR2 was determined, using 5×10⁴ transfected cells/well and an antibody concentration range from 0.01-10 μg/mL.
On the technique in general: In flow cytometry, cells or beads pass a laser one at a time.

For assay [3], the target named is human (Homo sapiens) ROR2, full length, on cells (human, UniProt Q01974 34-943). The experiment in a line: cell-based or functional assay.
Sequence of human (Homo sapiens) ROR2, full length, on cells (Q01974 34-943 limits assumed): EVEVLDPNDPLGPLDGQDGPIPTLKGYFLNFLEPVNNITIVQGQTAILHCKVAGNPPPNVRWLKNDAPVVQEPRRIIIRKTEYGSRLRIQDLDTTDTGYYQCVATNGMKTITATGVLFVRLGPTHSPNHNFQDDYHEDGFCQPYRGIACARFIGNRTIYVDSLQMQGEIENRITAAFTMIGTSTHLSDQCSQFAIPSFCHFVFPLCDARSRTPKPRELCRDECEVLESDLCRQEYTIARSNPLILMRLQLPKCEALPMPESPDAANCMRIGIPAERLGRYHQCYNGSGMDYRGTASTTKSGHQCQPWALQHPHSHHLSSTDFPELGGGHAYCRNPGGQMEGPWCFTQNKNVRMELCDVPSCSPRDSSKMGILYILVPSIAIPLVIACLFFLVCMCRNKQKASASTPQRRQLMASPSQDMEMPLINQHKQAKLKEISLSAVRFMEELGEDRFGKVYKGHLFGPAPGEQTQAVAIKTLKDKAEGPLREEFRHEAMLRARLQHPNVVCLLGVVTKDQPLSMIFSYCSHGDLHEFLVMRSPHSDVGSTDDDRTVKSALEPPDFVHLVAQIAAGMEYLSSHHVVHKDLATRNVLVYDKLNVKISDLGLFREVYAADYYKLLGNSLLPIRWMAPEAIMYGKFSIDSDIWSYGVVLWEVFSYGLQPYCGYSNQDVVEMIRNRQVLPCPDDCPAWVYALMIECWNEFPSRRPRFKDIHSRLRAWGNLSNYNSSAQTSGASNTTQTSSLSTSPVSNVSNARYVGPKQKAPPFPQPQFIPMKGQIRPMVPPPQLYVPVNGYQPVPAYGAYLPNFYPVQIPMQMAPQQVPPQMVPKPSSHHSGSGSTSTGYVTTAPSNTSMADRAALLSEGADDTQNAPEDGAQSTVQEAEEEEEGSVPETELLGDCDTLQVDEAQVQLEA
The target of assay [4] is T3, cynomolgus monkey ROR2 in which threonine at position 322 is replaced by methionine (ROR2mf-T322M) (cynomolgus monkey (Macaca fascicularis), UniProt Q01974 34-943 (human entry)).
T3 construct: also called RORmf-T322M
The assay can be described thus: flow cytometry on CHO cells expressing ROR2mf-T322M.

T1 sequence (Q01974 34-403): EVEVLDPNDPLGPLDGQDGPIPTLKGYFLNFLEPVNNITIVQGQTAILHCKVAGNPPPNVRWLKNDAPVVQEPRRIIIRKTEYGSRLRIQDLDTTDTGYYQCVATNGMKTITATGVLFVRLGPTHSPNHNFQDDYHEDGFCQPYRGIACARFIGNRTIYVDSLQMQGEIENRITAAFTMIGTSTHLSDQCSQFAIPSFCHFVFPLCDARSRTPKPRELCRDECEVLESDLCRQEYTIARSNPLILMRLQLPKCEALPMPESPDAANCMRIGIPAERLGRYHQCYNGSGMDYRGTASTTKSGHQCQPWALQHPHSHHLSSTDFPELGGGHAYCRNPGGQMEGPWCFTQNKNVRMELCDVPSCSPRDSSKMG

B1: IgG1-ROR2-A-HC2LC4-FEAR (antibody)
heavy: QSVLESGGGLVQPGGSLRLSCTVSGFSLSSYSMSWVRQAPGKGLEWIGVIYVNSKTWYANWAKGRFTISKTSTTVYLQMNSLRAEDTATYFCARGDAGYTTNSWLWGQGTLVTVSSASTKGPSVFPLAPSSKSTSGGTAALGCLVKDYFPEPVTVSWNSGALTSGVHTFPAVLQSSGLYSLSSVVTVPSSSLGTQTYICNVNHKPSNTKVDKRVEPKSCDKTHTCPPCPAPEFEGGPSVFLFPPKPKDTLMISRTPEVTCVVVAVSHEDPEVKFNWYVDGVEVHNAKTKPREEQYNSTYRVVSVLTVLHQDWLNGKEYKCKVSNKALPAPIEKTISKAKGQPREPQVYTLPPSREEMTKNQVSLTCLVKGFYPSDIAVEWESNGQPENNYKTTPPVLDSDGSFFLYSRLTVDKSRWQQGNVFSCSVMHEALHNHYTQKSLSLSPGK
VL: DIQLTQSPSSLSASVGDRVTITCQASESIDNYLSWYQQKPGKAPKLLIYQAFKLASGVPSRFRGSGSGTDFTLTISSLQPEDFATYYCQSYSGISTTAFGGGTKVEIK
notes: Humanized variant
In general, Kd refers to the constant that tells how readily two partners part at equilibrium. Usually koff stands for the rate constant with which the complex falls apart. The term kon denotes the second-order rate constant of association. Regarding B1, in assay [1], binding was characterised by a dissociation constant (Kd) of 2.2 nM, the koff is 0.0011 s⁻¹ and the kon was found to be 510000 M⁻¹ s⁻¹.

B2: bsIgG1-huCD3-FEAL×chROR2-A-FEAR (bispecific antibody)
heavy 1: not shown
light 1: not shown
heavy 2: QSVEESGGRLVTPGTPLTLTCTVSGFSLSSYSMSWVRQAPGKGLEWIGVIYVNSKTWYANWAKGRFTISKTSTTVDLKITSPTTEDTATYFCARGDAGYTTNSWLWGPGTLVTVSSASTKGPSVFPLAPSSKSTSGGTAALGCLVKDYFPEPVTVSWNSGALTSGVHTFPAVLQSSGLYSLSSVVTVPSSSLGTQTYICNVNHKPSNTKVDKRVEPKSCDKTHTCPPCPAPEFEGGPSVFLFPPKPKDTLMISRTPEVTCVVVAVSHEDPEVKFNWYVDGVEVHNAKTKPREEQYNSTYRVVSVLTVLHQDWLNGKEYKCKVSNKALPAPIEKTISKAKGQPREPQVYTLPPSREEMTKNQVSLTCLVKGFYPSDIAVEWESNGQPENNYKTTPPVLDSDGSFFLYSRLTVDKSRWQQGNVFSCSVMHEALHNHYTQKSLSLSPGK
light 2: AFELTQTPASVSEPVGGTVTIKCQASESIDNYCSWYQQKPGQPPKLLIYQAFKLASGVPSRFRGSGSGTQFTLTISDLESDDAATYYCQSYSGISTTAFGGGTEVVVKRTVAAPSVFIFPPSDEQLKSGTASVVCLLNNFYPREAKVQWKVDNALQSGNSQESVTEQDSKDSTYSLSSTLTLSKADYEKHKVYACEVTHQGLSSPVTKSFNRGEC
For B2, the binding result in assay [2] is listed as “binds”. Also, in assay [3], the “IC50 of T cell mediated cytotoxicity, 786-O cells, human T cells, E:T 8:1” value turned out to be 0.003 µg/mL; the “IC50 of T cell mediated cytotoxicity, Hela cells, human T cells, E:T 8:1” value was 0.002 µg/mL; the “IC50 of T cell mediated cytotoxicity, LCLC-103H cells, human T cells, E:T 8:1” value worked out at 0.011 µg/mL; the “IC50 of T cell mediated cytotoxicity, NCI-H23 cells, human T cells, E:T 8:1” value turned out to be 0.013 µg/mL. Further, in assay [3], the “IC50 of T cell mediated cytotoxicity, NCI-H1650 cells, human T cells, E:T 8:1” value worked out at 0.006 µg/mL and the “IC50 of T cell mediated cytotoxicity, ZR-75-1 cells, human T cells, E:T 8:1” value stood at 0.003 µg/mL. Besides, the binding result in assay [4] is reported as “binds”.

B3: bsIgG1-huCD3-H101G-FEAL×chROR2-A-FEAR (bispecific antibody)
heavy 1: not shown
light 1: not shown
heavy 2: B2 heavy 2
light 2: B2 light 2
Regarding B3, in assay [3], the “IC50 of T cell mediated cytotoxicity, 786-O cells, human T cells, E:T 8:1” value stood at 0.088 µg/mL; the “IC50 of T cell mediated cytotoxicity, Hela cells, human T cells, E:T 8:1” value turned out to be 0.424 µg/mL; the “IC50 of T cell mediated cytotoxicity, LCLC-103H cells, human T cells, E:T 8:1” value came out at 0.511 µg/mL; the “IC50 of T cell mediated cytotoxicity, NCI-H23 cells, human T cells, E:T 8:1” value came to 0.58 µg/mL. Besides, in assay [3], the “IC50 of T cell mediated cytotoxicity, NCI-H1650 cells, human T cells, E:T 8:1” value is 0.693 µg/mL and the “IC50 of T cell mediated cytotoxicity, ZR-75-1 cells, human T cells, E:T 8:1” value stood at 0.424 µg/mL. Moreover, the binding result in assay [4] is recorded as “binds”.

B4: IgG1-ROR2-A-HC4LC3-FEAR (antibody)
heavy: EVQLLESGGGLVQPGGSLRLSCTVSGFSLSSYSMSWVRQAPGKGLEWIGVIYVNSKTWYANWAKGRFTISKDNSKNTVYLQMNSLRAEDTATYYCARGDAGYTTNSWLWGQGTLVTVSSASTKGPSVFPLAPSSKSTSGGTAALGCLVKDYFPEPVTVSWNSGALTSGVHTFPAVLQSSGLYSLSSVVTVPSSSLGTQTYICNVNHKPSNTKVDKRVEPKSCDKTHTCPPCPAPEFEGGPSVFLFPPKPKDTLMISRTPEVTCVVVAVSHEDPEVKFNWYVDGVEVHNAKTKPREEQYNSTYRVVSVLTVLHQDWLNGKEYKCKVSNKALPAPIEKTISKAKGQPREPQVYTLPPSREEMTKNQVSLTCLVKGFYPSDIAVEWESNGQPENNYKTTPPVLDSDGSFFLYSRLTVDKSRWQQGNVFSCSVMHEALHNHYTQKSLSLSPGK
light: AFELTQSPSSLSASVGDRVTITCQASESIDNYLSWYQQKPGKAPKLLIYQAFKLASGVPSRFRGSGSGTDFTLTISSLQPEDFATYYCQSYSGISTTAFGGGTKVEIKRTVAAPSVFIFPPSDEQLKSGTASVVCLLNNFYPREAKVQWKVDNALQSGNSQESVTEQDSKDSTYSLSSTLTLSKADYEKHKVYACEVTHQGLSSPVTKSFNRGEC
notes: Humanized variant, full-length IgG1 with L234F, L235E, D265A, K409R; also called IgG1-ROR2-HC4LC3
B4: the binding result in assay [2] is “binds”. For the same molecule, in assay [1], binding was characterised by a dissociation constant (Kd) of 1.1 nM, the koff was found to be 0.00068 s⁻¹ and the kon was 600000 M⁻¹ s⁻¹.

B5: chIgG1-ROR2-A-FEAR (antibody, V domains shown)
VH: QSVEESGGRLVTPGTPLTLTCTVSGFSLSSYSMSWVRQAPGKGLEWIGVIYVNSKTWYANWAKGRFTISKTSTTVDLKITSPTTEDTATYFCARGDAGYTTNSWLWGPGTLVTVSS
VL: AFELTQTPASVSEPVGGTVTIKCQASESIDNYCSWYQQKPGQPPKLLIYQAFKLASGVPSRFRGSGSGTQFTLTISDLESDDAATYYCQSYSGISTTAFGGGTEVVVKR
notes: Full-length IgG1 with L234F, L235E, D265A, K409R; also called chIgG1-ROR2-A (with the Fc mutations FEAR)
For the molecule B5, the binding result in assay [2] is “binds”. For the same molecule, in assay [1], the Kd amounted to 1.1 nM, the koff is 0.00079 s⁻¹ and the kon came to 720000 M⁻¹ s⁻¹. In addition, the binding result in assay [4] is reported as “binds”.

(Values after patent publication US20230365714A1 (published 2023).)
